Measured values as given in publication PMC10385363, “Enhancing the Catalytic Activity of Glycolate Oxidase from Chlamydomonas reinhardtii through Semi-Rational Design” (Microorganisms, 2023).

How the values were obtained:
[1] = target: T1, GST-GSG-CreGO (glycolate oxidase CreGO) (Chlamydomonas reinhardtii, UniProt F8WQN2, Y27S/V111G, form not given); conditions: read-out: GST-GSG-CreGO-Y27S/V212R/V111G; 10 mM phenylhydrazine, 100 mM PBS pH 6.5, 40 °C; O2 as co-substrate; substrate range 0-100 mM; V111G is misprinted V11G in parts of the text
T1 construct: gene CHLRE_03g171300v5

[2] = substrate: O=C(O)CO; test: purified protein; conditions: 10 mM phenylhydrazine, 100 mM PBS pH 6.5, 40 °C, O2 as co-substrate, substrate range 0-100 mM

T1 sequence (F8WQN2 whole entry Y27S/V111G, form open): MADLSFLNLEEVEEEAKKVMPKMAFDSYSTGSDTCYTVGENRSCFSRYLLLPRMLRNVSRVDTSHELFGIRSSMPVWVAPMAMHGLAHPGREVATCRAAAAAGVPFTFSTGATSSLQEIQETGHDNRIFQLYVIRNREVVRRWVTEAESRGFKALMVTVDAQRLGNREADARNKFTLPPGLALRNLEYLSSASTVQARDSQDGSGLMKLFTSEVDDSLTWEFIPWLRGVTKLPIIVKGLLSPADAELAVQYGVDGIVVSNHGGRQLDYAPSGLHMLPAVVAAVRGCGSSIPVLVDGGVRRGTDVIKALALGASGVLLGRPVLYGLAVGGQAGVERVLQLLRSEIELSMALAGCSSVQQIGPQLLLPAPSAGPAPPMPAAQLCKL

## O=C(O)CO [sodium glycolate]
[1]
  Km: 600 ± 40 µM

B1: GST-GSG-CreGO (glycolate oxidase CreGO) (Chlamydomonas reinhardtii) (protein)
chain: MADLSFLNLEEVEEEAKKVMPKMAFDYYSTGSDTCYTVGENRSCFSRYLLLPRMLRNVSRVDTSHELFGIRSSMPVWVAPMAMHGLAHPGREVATCRAAAAAGVPFTFSTVATSSLQEIQETGHDNRIFQLYVIRNREVVRRWVTEAESRGFKALMVTVDAQRLGNREADARNKFTLPPGLALRNLEYLSSASTVQARDSQDGSGLMKLFTSEVDDSLTWEFIPWLRGVTKLPIIVKGLLSPADAELAVQYGVDGIVVSNHGGRQLDYAPSGLHMLPAVVAAVRGCGSSIPVLVDGGVRRGTDVIKALALGASGVLLGRPVLYGLAVGGQAGVERVLQLLRSEIELSMALAGCSSVQQIGPQLLLPAPSAGPAPPMPAAQLCKL
[2]
  Km: 1000 ± 50 µM
  Vmax: 7.2 µmol/min/mg
  kcat: 4.9 s⁻¹
  kcat/Km: 4900 M⁻¹ s⁻¹
